Experimental data published in patent US20260224676A1 (published 2026).

Target: Tau preformed fibrils (PFF) (UniProt P10636 2-758)
Experiment: BLI

Kd: 1.32 nM
B1: Bepranemab (antibody, V domains shown)
VH: EVQLQESGPGLVKPSETLSLTCTVSGFSLTSNDIAWIRQPPGKGLEWMGTIWTDGSTNYNTAVQSRVTISVDTSKNQFSLKLSSVTAADTAVYYCARHRLYYGAFDYWGQGTMVTVSS
VL: DIVMTQTPLSLSVTPGQPASISCRSSQSLEYSDGYTYLEWYLQKPGQSPQLLIYEVSNRFSGVPDRFSGSGSGTDFTLKISRVEAEDVGVYYCFQATHNPYTFGQGTKLEIK
